To fix the notation:
T1: pig CD47 (pig, UniProt Q9GKE8 19-303)
T1 construct: whole, on cells; also called CD47 on porcine RBCs
T1 sequence (looked up): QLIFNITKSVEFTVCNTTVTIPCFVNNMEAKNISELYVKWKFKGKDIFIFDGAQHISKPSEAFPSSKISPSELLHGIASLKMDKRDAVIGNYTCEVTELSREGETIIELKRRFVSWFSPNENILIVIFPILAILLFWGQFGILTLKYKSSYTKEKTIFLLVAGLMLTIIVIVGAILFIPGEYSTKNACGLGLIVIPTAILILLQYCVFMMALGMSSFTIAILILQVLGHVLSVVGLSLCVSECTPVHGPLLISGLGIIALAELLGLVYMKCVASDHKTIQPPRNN

T2: mouse CD47 (mouse, UniProt Q61735 19-303)
T2 construct: whole, on cells; also called CD47 on mouse RBCs; CD47 on 4T1 cells
T2 sequence (looked up): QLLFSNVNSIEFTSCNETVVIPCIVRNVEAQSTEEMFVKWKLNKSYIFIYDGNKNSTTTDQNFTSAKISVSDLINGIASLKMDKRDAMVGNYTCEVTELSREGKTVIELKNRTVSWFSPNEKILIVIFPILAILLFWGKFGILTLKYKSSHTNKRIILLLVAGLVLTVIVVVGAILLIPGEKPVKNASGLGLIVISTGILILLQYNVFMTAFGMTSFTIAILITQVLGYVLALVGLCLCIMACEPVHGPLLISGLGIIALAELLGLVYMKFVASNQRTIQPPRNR

T3: rat CD47 (rat, UniProt P97829 19-303)
T3 construct: whole, on cells; also called CD47 on rat RBCs
T3 sequence (looked up): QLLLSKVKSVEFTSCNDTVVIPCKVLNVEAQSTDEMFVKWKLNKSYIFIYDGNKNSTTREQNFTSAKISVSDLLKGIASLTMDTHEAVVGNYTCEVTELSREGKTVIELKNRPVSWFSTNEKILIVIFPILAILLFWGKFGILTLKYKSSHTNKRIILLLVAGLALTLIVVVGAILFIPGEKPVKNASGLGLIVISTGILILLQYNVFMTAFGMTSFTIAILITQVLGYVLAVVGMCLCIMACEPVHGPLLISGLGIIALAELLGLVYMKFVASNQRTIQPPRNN

T4: dog CD47 (dog, UniProt A0A8I3PM61 19-310)
T4 construct: also called CD47 on dog RBCs
T4 sequence: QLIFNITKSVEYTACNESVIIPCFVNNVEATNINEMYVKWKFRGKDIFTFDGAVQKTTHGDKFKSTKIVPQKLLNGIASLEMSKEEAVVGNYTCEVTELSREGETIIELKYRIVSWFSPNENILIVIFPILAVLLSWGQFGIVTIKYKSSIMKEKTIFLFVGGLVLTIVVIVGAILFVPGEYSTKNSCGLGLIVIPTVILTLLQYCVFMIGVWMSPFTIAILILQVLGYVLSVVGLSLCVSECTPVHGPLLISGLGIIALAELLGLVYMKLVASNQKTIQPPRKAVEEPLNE

B1: Clone 1 (pVxK7b-037-hum01-LC / pVxK7b-037-hum01-HC) (antibody, human IgG1, kappa)
light: DIVMTQTPLSLPVTPGEPASISCRSSQSLVHSNGNTYLHWYQQKPGKAPKLLIYKVSYRFSGVPDRFSGSGSGTDFTLKISRVEAEDVGVYYCSQNTHVPRTFGQGTKVEIKRTVAAPSVFIFPPSDEQLKSGTASVVCLLNNFYPREAKVQWKVDNALQSGNSQESVTEQDSKDSTYSLSSTLTLSKADYEKHKVYACEVTHQGLSSPVTKSFNRGEC
heavy: not shown
notes: also called Cl 1
B2: Clone 23 (pVxK7b-037-hum23-LC / pVxK7b-037-hum23-HC) (antibody, human IgG1, kappa)
light: B1 light
heavy: not shown
B3: Clone 19 (pVxK7b-037-hum19-LC / pVxK7b-037-hum19-HC) (antibody, human IgG1, kappa)
light: B1 light with I2V, T7S, P15L, E17Q
heavy: not shown
B4: Clone 20 (pVxK7b-037-hum20-LC / pVxK7b-037-hum20-HC) (antibody, human IgG1, kappa)
light: B1 light with Q42L, K47Q, A48S, K50Q
heavy: not shown
B5: Clone 14 (pVxK7b-037-hum14-LC / pVxK7b-037-hum14-HC) (antibody, human IgG1, kappa)
light: B1 light with I2V, T7S, P15L, E17Q
heavy: not shown
B6: Clone 13 (pVxK7b-037-hum13-LC / pVxK7b-037-hum13-HC) (antibody, human IgG1, kappa)
light: B1 light
heavy: not shown
notes: also called Cl 13
B7: Clone 3 (pVxK7b-037-hum03-LC / pVxK7b-037-hum03-HC) (antibody, human IgG1, kappa)
light: B1 light with I2V, T7S, P15L, E17Q
heavy: not shown
B8: chimeric antibody VxP037-01LC-Pro/VxP037-01HC-Pro (antibody, human IgG1, kappa, V domains shown)
VH: EVQLQQFGAELVKPGASMKLSCKASGYTFTNYYVFWVKQRPGQGLEWIGDINPVNGDTNFNEKFKNKATLTVDKSSTTTYLQLSSLTSEDSAVYYCTRGGYTMDYWGQGTLVTVSS
VL: DVVMTQTPLSLSVSLGDQASISCRSSQSLVHSNGNTYLHWYLQKPGQSPKLLIYKVSYRFSGVPDRFSGSGSGTDFTLKISRVEAEDLGVYFCSQNTHVPRTFGQGTKVEIKR
notes: also called Chimera; VxP037-01LC/VxP037-01HC
B9: Clone 15 (pVxK7b-037-hum15-LC / pVxK7b-037-hum15-HC) (antibody, human IgG1, kappa, V domains shown)
VH: QVQLQESGPGLVKPSQTLSLTCTVSGYTFTNYYVFWVRQARGQRLEWIGDINPVNGDTNFNEKFKNRLTISKDTSKNQVVLTMTNMDPVDTATYYCARGGYTMDYWGQGTLVTVSS
VL: AIQLTQSPSSLSASVGDRVTITCRSSQSLVHSNGNTYLHWYQQKPGQAPRLLIYKVSYRFSGVPSRFSGSGSGTEFTLTISSLQPDDFATYYCSQNTHVPRTFGQGTKVEIKR
B10: Clone 22 (pVxK7b-037-hum22-LC / pVxK7b-037-hum22-HC) (antibody, human IgG1, kappa, V domains shown)
VH: B9 VH
VL: EIVLTQSPATLSVSPGERATLSCRSSQSLVHSNGNTYLHWYQQKPGQAPRLLIYKVSYRFSGVPSRFSGSGSGTDFTFTISSLEAEDAATYYCSQNTHVPRTFGQGTKVEIKR
B11: Clone 21 (pVxK7b-037-hum21-LC / pVxK7b-037-hum21-HC) (antibody, human IgG1, kappa, V domains shown)
VH: B9 VH
VL: AIQLTQSPSSLSASVGDRVTITCRSSQSLVHSNGNTYLHWYQQKPGQAPRLLIYKVSYRFSGVPDRFSGSGSGTDFTLKISRVEAEDVGVYYCSQNTHVPRTFGQGTKVEIKR
B12: Clone 6 (pVxK7b-037-hum06-LC / pVxK7b-037-hum06-HC) (antibody, human IgG1, kappa, V domains shown)
VH: B9 VH
VL: B9 VL with A1D, L4M, Q42L, A48S, R50Q, V63I, S65A, P85S, D86E, T90V
B13: Clone 2 (pVxK7b-037-hum02-LC / pVxK7b-037-hum02-HC) (antibody, human IgG1, kappa, V domains shown)
VH: QVQLQESGPGLVKPSQTLSLTCTVSGYTFTNYYVFWVRQARGQRLEWIGDINPVNGDTNFNEKFKNRVTISADKSISTAYLQWSSLKASDTAMYYCARGGYTMDYWGQGTLVTVSS
VL: DVVMTQSPLSLPVTLGQPASISCRSSQSLVHSNGNTYLHWYQQKPGQAPRLLIYKVSYRFSGVPSRFSGSGSGTEFTLTISSLQPDDFATYYCSQNTHVPRTFGQGTKVEIKR

Substitutions are numbered along the chain they refer to.

One assay deals with T5, human CD47 (human, UniProt Q08722 19-323).
T5 construct: whole, on cells; also called CD47 on human RBCs; CD47 on OV10 cells
T5 sequence (Q08722 19-323): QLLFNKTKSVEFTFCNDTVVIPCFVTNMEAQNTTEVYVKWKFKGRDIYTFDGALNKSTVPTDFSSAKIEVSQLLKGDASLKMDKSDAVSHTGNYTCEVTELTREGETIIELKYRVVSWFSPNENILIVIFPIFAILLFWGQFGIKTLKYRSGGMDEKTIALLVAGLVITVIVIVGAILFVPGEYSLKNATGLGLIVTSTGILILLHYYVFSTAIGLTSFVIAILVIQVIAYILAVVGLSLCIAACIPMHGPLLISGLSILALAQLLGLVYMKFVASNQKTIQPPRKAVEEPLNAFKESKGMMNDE
The assay can be described thus: FACS, human RBCs, supernatant 10 ng/ml. The procedure:
(§1) RBCs are incubated for 60 minutes on ice with tissue culture supernatants containing the secreted humanized antibodies at a concentration of 10 ng/ml in a solution of phosphate buffered saline, pH 7.2, 2.5 mM EDTA (PBS+E), or with various concentrations of purified antibodies. Cells are then washed with cold PBS+E, and incubated for an additional hour on ice with FITC labeled donkey anti-human antibody (Jackson Immuno Research Labs, West Grove, Pa.; Catalogue #709-096-149) in PBS+E. Cells are then washed with PBS+E, and antibody binding is analyzed using a BD FACSAria Cell Sorter (Becton Dickinson) or a C6 Accuri Flow Cytometer (Becton Dickinson). Antibody binding is quantitated by comparison of mean fluorescence values relative to that of chimeric antibody >VxP037-01LC (SEQ ID NO:7))/>VxP037-01HC (SEQ ID NO:57). The mean fluorescence value for each antibody is divided by the mean fluorescence value for the chimeric antibody.
On to B1, for which the “mean fluorescence relative to chimera” value worked out at 1.1.
For the molecule B2, the “mean fluorescence relative to chimera” value turned out to be 1.2.
As to B3, the “mean fluorescence relative to chimera” value is 0.7.
As to B4, the “mean fluorescence relative to chimera” value was 1.3.
For the molecule B5, the “mean fluorescence relative to chimera” value was 1.1.
With B6, the “mean fluorescence relative to chimera” value worked out at 1.2.
Take B7: the “mean fluorescence relative to chimera” value is 0.7.
As to B8, the “mean fluorescence relative to chimera” value came to 1.
For the molecule B9, the “mean fluorescence relative to chimera” value was 1.
As for B10, the “mean fluorescence relative to chimera” value was determined as 1.1.
B11: the “mean fluorescence relative to chimera” value was 1.2.
As to B12, the “mean fluorescence relative to chimera” value was 0.9.
On the same count and under the same terms, the same measure for B13: 1.

Another assay deals with T1, pig CD47. In words: FACS, pig RBCs, supernatant 10 ng/ml. The procedure: as §1
(In general: Flow cytometry measures light scatter and fluorescence of single cells or particles in a stream.)
Consider B1, for which the “mean fluorescence relative to chimera” value came out at 1.3.
As for B2, the “mean fluorescence relative to chimera” value came out at 1.7.
The same measure, in the same setting: the same measure for B3: 1.3; for B4: 1.7.
On to B5, for which the “mean fluorescence relative to chimera” value was determined as 1.4.
Take B6: the “mean fluorescence relative to chimera” value came out at 1.4.
B7: the “mean fluorescence relative to chimera” value was 0.9.
Still for that read-out and setting: to B8 belongs 1; to B9, 1.2.
On the same count and under the same terms, the same measure for B10: 1.4; for B11: 1.4; for B12: 1.1.
On to B13, for which the “mean fluorescence relative to chimera” value was 1.2.

For a further assay, the target named is T2, mouse CD47. The assay can be described thus: FACS, mouse RBCs, supernatant 10 ng/ml. As to the method: as §1
For the molecule B1, the “mean fluorescence relative to chimera” value is 1.7.
Consider B2, for which the “mean fluorescence relative to chimera” value turned out to be 1.4.
Regarding B3, the “mean fluorescence relative to chimera” value turned out to be 1.
Same read-out and setting: to B4 belongs 1.5; to B5, 1.5; to B6, 1.3.
B7: the “mean fluorescence relative to chimera” value is 0.9.
On to B8, for which the “mean fluorescence relative to chimera” value is 1.
With B9, the “mean fluorescence relative to chimera” value is 1.3.
Turning to B10, the “mean fluorescence relative to chimera” value is 1.2.
B11: the “mean fluorescence relative to chimera” value was determined as 1.2.
B12: the “mean fluorescence relative to chimera” value was 1.2.
Turning to B13, the “mean fluorescence relative to chimera” value was 1.2.

The target in a further assay is T3, rat CD47. In words: FACS, rat RBCs, supernatant 10 ng/ml. As to the method:
as §1
Consider B1, for which the “mean fluorescence relative to chimera” value worked out at 2.7.
On the same count and under the same terms, the same measure for B2: 3.3; for B3: 2.6.
The same measure, in the same setting: the same measure for B4: 1.9; for B5: 3.2.
On the same count and under the same terms, the same measure for B6: 3.1; for B7: 1.7; for B8: 1.
With B9, the “mean fluorescence relative to chimera” value turned out to be 2.4.
Still for that read-out and setting: the same measure for B10: 2.8; for B11: 2.8; for B12: 2.1.
B13: the “mean fluorescence relative to chimera” value came to 2.6.

A further assay deals with T4, dog CD47. In words: FACS, dog RBCs, supernatant 10 ng/ml. The procedure: as §1
Consider B1, for which the “mean fluorescence relative to chimera” value came out at 1.
On to B2, for which the “mean fluorescence relative to chimera” value came out at 1.1.
With B3, the “mean fluorescence relative to chimera” value worked out at 1.2.
For the molecule B4, the “mean fluorescence relative to chimera” value came to 1.1.
On to B5, for which the “mean fluorescence relative to chimera” value came to 1.3.
As to B6, the “mean fluorescence relative to chimera” value worked out at 1.
On to B7, for which the “mean fluorescence relative to chimera” value was 0.9.
On to B8, for which the “mean fluorescence relative to chimera” value came to 1.
Turning to B9, the “mean fluorescence relative to chimera” value turned out to be 1.1.
Consider B10, for which the “mean fluorescence relative to chimera” value turned out to be 1.
B11: the “mean fluorescence relative to chimera” value was 1.1.
For B12, the “mean fluorescence relative to chimera” value worked out at 1.1.
On the same count and under the same terms, the same measure for B13: 1.
